Assay results taken from US10246495B2, “Variants of Gal2 transporter and their uses” (BUTALCO GMBH, priority 2014, dated 2019).
Entries after “also recorded” stand apart in the source; their conditions may differ.

What was measured:
Gal2 = Gal2 (Saccharomyces cerevisiae, UniProt P13181); settings: galactose transport by Gal2; cited from earlier work
EBY.VW4000 = test: Serial dilution growth drop test of Gal2 variants in EBY.VW4000 on hexoses; format: cell-based, Saccharomyces cerevisiae; settings: FIG. 3, four days at 30°; for growth on glucose: Gal2 of CEN.PK constructs
Protocol: The transformants were cultivated in 5 ml SCM-ura with 20 g/l maltose at 300, washed with water and adjusted to an OD600 of 1. Thereof it followed a serial dilution. 5 μl were dropped onto the respective media and it was incubated for […] at 30°. As a control for the dilution SCM-ura with 20 g/l maltose was taken. The cells of the mutated transporters were dropped onto SCD-ura with 0.2% and 2% glucose, as well as SCG-ura with 0.2% and 2% D-galactose to test their functionality. Furthermore the wild type of CEN.PK2 and Ethanol Red, as well as Gal2_ep3.1 were used for comparison. The galactose transporter with the mutation T354A is from HDY.GUF10.
FIG. 3: Drop test of Gal2_T354A in combination with V71I and L280R in EBY.VW4000 after four days at 30°. Several dilutions were dropped from left to right (undiluted, 1:10, 1:100, 1:1000).
(§1) For easy comparison of growth of different S. cerevisiae strains under various growth conditions a serial dilution spot assay was performed. Cells were grown in liquid culture to exponential phase in appropriate medium, collected by centrifugation (2000×g, 2 min), washed twice with sterile water and then resuspended to an OD600 of 1.0 in selective medium without carbon source. From this cell suspension a ten-fold serial dilution was prepared in selective medium (four dilution steps). 6 μl of each cell suspension were spotted on plates of the media to be examined and allowed to dry. Plates were incubated at 30° C.
First a growth test was performed with the vectors in VW4000 on glucose and maltose media. The galactose transporter of the wild type CEN.PK2, as well as Gal2_ep3.1 were used as controls and as a comparison.
The following variants of Gal2 were constructed in expression vectors: T354A, T354A+V71I, T354A+L280R, L280R and […]. They were transformed into competent EBY.VW4000 cells. Then drop tests were performed on different carbon sources.

AFY10 = test: Serial dilution growth drop test of Gal2 variants in AFY10 on xylose and xylose-glucose mixtures; format: cell-based, Saccharomyces cerevisiae; settings: FIG. 4; 2 g/l xylose, six days at 30°
Protocol: The transformants were cultivated in 5 ml SCE-ura-leu with 2% ethanol at 300, washed with water and adjusted to an OD600 of 1. Thereof it followed a serial dilution. 5 μl were dropped onto the respective media and it was incubated for […] at 30°. As a control for the dilution SCE-ura-leu with 2% ethanol was taken. The cells of the mutated transporters were dropped onto SCX-ura-leu with 0.2% and 2% D-xylose, as well as SC-ura-leu with 1% D-xylose with 4% D-glucose and SC-ura-leu with 0.2% D-xylose and 2% D-glucose to test their functionality. Furthermore the wild type of CEN.PK2 and Ethanol Red, as well as Gal2_ep3.1 were used for comparison. The galactose transporter with the mutation T354A is from HDY.GUF10.
FIG. 4: Drop test of Gal2_T354A in combination with V71I and L280R in AFY10 after six days at 30°. Several dilutions were dropped from left to right (undiluted, 1:10, 1:100, 1:1000).
as §1
Furthermore this was also done with AFY10 in order to investigate the xylose specificity and the glucose affinity of the transformants.
The various constructs were transformed into AFY10 cells together with vector YEp181_pHXT7-optXI_Clos, and serial dilution growth drop tests were performed.

Chain of Gal2 (P13181 whole entry): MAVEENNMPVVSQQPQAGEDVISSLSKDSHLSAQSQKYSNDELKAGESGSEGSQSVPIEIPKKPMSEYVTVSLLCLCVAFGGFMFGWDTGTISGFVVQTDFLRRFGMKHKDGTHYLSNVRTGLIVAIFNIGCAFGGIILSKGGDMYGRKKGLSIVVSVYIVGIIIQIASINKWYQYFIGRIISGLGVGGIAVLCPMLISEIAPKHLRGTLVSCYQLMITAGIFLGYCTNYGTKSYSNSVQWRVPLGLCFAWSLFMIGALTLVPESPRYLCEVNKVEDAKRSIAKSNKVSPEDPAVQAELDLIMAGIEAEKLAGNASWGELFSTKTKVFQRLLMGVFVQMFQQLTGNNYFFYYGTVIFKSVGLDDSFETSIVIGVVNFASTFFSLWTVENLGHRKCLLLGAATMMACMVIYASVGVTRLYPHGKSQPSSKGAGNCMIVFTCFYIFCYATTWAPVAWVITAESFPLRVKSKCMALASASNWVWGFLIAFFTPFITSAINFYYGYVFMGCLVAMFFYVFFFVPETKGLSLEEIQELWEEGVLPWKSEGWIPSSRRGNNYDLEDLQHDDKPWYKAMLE

Molecule	Km (Gal2)	effect on uptake of glucose or galactose (EBY.VW4000)	growth on low xylose concentrations (AFY10)	growth on glucose (EBY.VW4000)
O=C[C@H](O)[C@@H](O)[C@@H](O)[C@H](O)CO [galactose]	1 to 5 mM			
V71I: Gal2 of CEN.PK with amino acid exchange V71I alone (protein, UniProt P13181 1-574, looked up, variant V71I) Galactose transporter: MAVEENNMPVVSQQPQAGEDVISSLSKDSHLSAQSQKYSNDELKAGESGSEGSQSVPIEIPKKPMSEYVTISLLCLCVAFGGFMFGWDTGTISGFVVQTDFLRRFGMKHKDGTHYLSNVRTGLIVAIFNIGCAFGGIILSKGGDMYGRKKGLSIVVSVYIVGIIIQIASINKWYQYFIGRIISGLGVGGIAVLCPMLISEIAPKHLRGTLVSCYQLMITAGIFLGYCTNYGTKSYSNSVQWRVPLGLCFAWSLFMIGALTLVPESPRYLCEVNKVEDAKRSIAKSNKVSPEDPAVQAELDLIMAGIEAEKLAGNASWGELFSTKTKVFQRLLMGVFVQMFQQLTGNNYFFYYGTVIFKSVGLDDSFETSIVIGVVNFASTFFSLWTVENLGHRKCLLLGAATMMACMVIYASVGVTRLYPHGKSQPSSKGAGNCMIVFTCFYIFCYATTWAPVAWVITAESFPLRVKSKCMALASASNWVWGFLIAFFTPFITSAINFYYGYVFMGCLVAMFFYVFFFVPETKGLSLEEIQELWEEGVLPWKSEGWIPSSRRGNNYDLEDLQHDDKPWYKAMLE		no effect	very slow growth; also recorded: poor growth	
V71I and T354A: Gal2 of CEN.PK with amino acid exchanges T354A and V71I (protein, UniProt P13181 1-574, looked up, variant V71I T354A) Galactose transporter: MAVEENNMPVVSQQPQAGEDVISSLSKDSHLSAQSQKYSNDELKAGESGSEGSQSVPIEIPKKPMSEYVTISLLCLCVAFGGFMFGWDTGTISGFVVQTDFLRRFGMKHKDGTHYLSNVRTGLIVAIFNIGCAFGGIILSKGGDMYGRKKGLSIVVSVYIVGIIIQIASINKWYQYFIGRIISGLGVGGIAVLCPMLISEIAPKHLRGTLVSCYQLMITAGIFLGYCTNYGTKSYSNSVQWRVPLGLCFAWSLFMIGALTLVPESPRYLCEVNKVEDAKRSIAKSNKVSPEDPAVQAELDLIMAGIEAEKLAGNASWGELFSTKTKVFQRLLMGVFVQMFQQLTGNNYFFYYGAVIFKSVGLDDSFETSIVIGVVNFASTFFSLWTVENLGHRKCLLLGAATMMACMVIYASVGVTRLYPHGKSQPSSKGAGNCMIVFTCFYIFCYATTWAPVAWVITAESFPLRVKSKCMALASASNWVWGFLIAFFTPFITSAINFYYGYVFMGCLVAMFFYVFFFVPETKGLSLEEIQELWEEGVLPWKSEGWIPSSRRGNNYDLEDLQHDDKPWYKAMLE			growth like the Gal2 wild type	does not mediate growth
T354A: Gal2 of CEN.PK with amino acid exchange T354A alone (protein, listed as Saccharomyces cerevisiae) MAVEENNMPVVSQQPQAGEDVISSLSKDSHLSAQSQKYSNDELKAGESGPEGSQSVPIEIPKKPMSEYVTVSLLCLCVAFGGFMFGWDTGTISGFVVQTDFLRRFGMKHKDGTHYLSNVRTGLIVAIFNIGCAFGGIILSKGGDMYGRKKGLSIVVSVYIVGIIIQIASINKWYQYFIGRIISGLGVGGIAVLCPMLISEIAPKHLRGTLVSCYQLMITAGIFLGYCTNYGTKSYSNSVQWRVPLGLCFAWSLFMIGALTLVPESPRYLCEVNKVEDAKLSIAKSNKVSPEDPAVQAELDLIMAGIEAEKLAGNASWGELFSTKTKVFQRLLMGVFVQMFQQLTGNNYFFYYGAVIFKSVGLDDSFETSIVIGVVNFASTFFSLWTVENLGRRKCLLLGAATMMACMVIYASVGVTRLYPHGKSQPSSKGAGNCMIVFTCFYIFCYATTWAPVAWVITAESFPLRVKSKCMALASASNWVWGFLIAFFTPFITSAINFYYGYVFMGCLVAMFFYVFFFVPETKGLSLEEIQELWEEGVLPWKSEGWIPSSRRGNNYDLEDLQHDDKPWYKAMLE			poor growth	strongly impairs growth
